According to the supplement of paper PMC10567573:

B1: GLTSCR2 (parent)
chain: LARRRRRRQARREAEADKPRRLGR

Variants of: B1
Assay: protein stability index of a GFP-peptide fusion (GPS, HEK-293T) (PSI 1-6); higher = more stable
Conditions: c terminus: a fixed tail appended
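Further: lentivirally expressed fusions sorted by FACS into six bins by GFP to DsRed ratio, PSI derived from sequencing read proportions per bin multiplied by bin number.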

Row | Variant | protein stability index
1 | LARRRRRRQARREAESDKPRRLGR [A16S] | 3.77
2 | LARRRRRRQARREAEVDKPRRLGR [A16V] | 4.69
3 | LARRRRRRQARREAENDKPRRLGR [A16N] | 4.91
4 | LARRRRRRQARREAETDKPRRLGR [A16T] | 4.76
5 | LARRRRRRQARREAEFDKPRRLGR [A16F] | 4.4
6 | LARRRRRRQARREAEIDKPRRLGR [A16I] | 4.22
7 | LARRRRRRQARREAEKDKPRRLGR [A16K] | 4.32
8 | LARRRRRRQARREAEWDKPRRLGR [A16W] | 3.73
9 | LARRRRRRQARREAEADKPDRLGR [R20D] | 4.11
10 | LARRRRRRQARREAEADKPMRLGR [R20M] | 4.38
11 | LARRRRRRQARREAEADKPQRLGR [R20Q] | 4.6
12 | LARRRRRRQARREAEADKPHRLGR [R20H] | 5.18
13 | LARRRRRRQARREAEADKPSRLGR [R20S] | 5.26
14 | LARRRRRRQARREAEADKPWRLGR [R20W] | 4.41
15 | LARRRRRRQARREAEADKPTRLGR [R20T] | 4.82
16 | LARRRRRRQARREAEADKPARLGR [R20A] | 4.25
17 | LARRRRRRQARREAEADKPCRLGR [R20C] | 4.45
18 | LARRRRRRQARREAEADKPYRLGR [R20Y] | 4.61
19 | LARRRRRRQARREAEADKPRALGR [R21A] | 5.06
20 | LARRRRRRQARREAEADKPRSLGR [R21S] | 5.15
21 | LARRRRRRQARREAEADKPRVLGR [R21V] | 4.67
22 | LARRRRRRQARREAEADKPRELGR [R21E] | 4.8
23 | LARRRRRRQARREAEADKPRGLGR [R21G] | 4.39
24 | LARRRRRRQARREAEADKPRCLGR [R21C] | 4.84

Row | Variant | protein stability index
25 | LARRRRRRQARREAEADKPRMLGR [R21M] | 4.52
26 | LARRRRRRQARREAEADKPRHLGR [R21H] | 3.99
27 | LARRRRRRQARREAEADKPRDLGR [R21D] | 4.65
28 | LARRRRRRQARREAEADKPRLLGR [R21L] | 4.36
29 | LARRRRRRQARREAEADKPRILGR [R21I] | 3.94
30 | LARRRRRRQARREAEADKPRTLGR [R21T] | 4.83
31 | LARRRRHRQARREAEADKPRRLGR [R7H] | 4.73
32 | LARRRRFRQARREAEADKPRRLGR [R7F] | 4.28
33 | LARRRRARQARREAEADKPRRLGR [R7A] | 4.18
34 | LARRRRIRQARREAEADKPRRLGR [R7I] | 4.41
35 | LARRRRNRQARREAEADKPRRLGR [R7N] | 4.83
36 | LARRRRKRQARREAEADKPRRLGR [R7K] | 5.11
37 | LARRRRGRQARREAEADKPRRLGR [R7G] | 4.71
38 | LARRRRRRQARREIEADKPRRLGR [A14I] | 4.28
39 | LARRRRRRQARREHEADKPRRLGR [A14H] | 4.34
40 | LARRRRRRQARREGEADKPRRLGR [A14G] | 3.91
41 | LARRRRRRQARREQEADKPRRLGR [A14Q] | 4.8
42 | LARRRRRRQARRELEADKPRRLGR [A14L] | 4.33
43 | LARRRRRRQARREEEADKPRRLGR [A14E] | 5.11
44 | LARRRRRRQARREFEADKPRRLGR [A14F] | 4.11
45 | LAMRRRRRQARREAEADKPRRLGR [R3M] | 4.41
46 | LAIRRRRRQARREAEADKPRRLGR [R3I] | 4.36
47 | LANRRRRRQARREAEADKPRRLGR [R3N] | 4.69
48 | LAQRRRRRQARREAEADKPRRLGR [R3Q] | 4.99

Row | Variant | protein stability index
49 | LACRRRRRQARREAEADKPRRLGR [R3C] | 4.74
50 | LAKRRRRRQARREAEADKPRRLGR [R3K] | 5.03
51 | LALRRRRRQARREAEADKPRRLGR [R3L] | 4.3
52 | LARRRRRRQARHEAEADKPRRLGR [R12H] | 4.74
53 | LARRRRRRQARREAEADNPRRLGR [K18N] | 4.96
54 | LARRRRRRQARREAEADQPRRLGR [K18Q] | 4.97
55 | LARRRRRRQARREAEADTPRRLGR [K18T] | 4.29
56 | LARRRRRRQARREAEADCPRRLGR [K18C] | 5.07
57 | LARRRRRRQARREAEADLPRRLGR [K18L] | 5.11
58 | LARRRRRRQARREAEADVPRRLGR [K18V] | 5.01
59 | LARRRRRRQAGREAEADKPRRLGR [R11G] | 3.7
60 | LARRRRRRQAPREAEADKPRRLGR [R11P] | 4.62
61 | LARRRRRRQAMREAEADKPRRLGR [R11M] | 4.47
62 | LARRRRRRQASREAEADKPRRLGR [R11S] | 4.74
63 | LARRRRRRQAAREAEADKPRRLGR [R11A] | 4.53
64 | LARRRRRRQAEREAEADKPRRLGR [R11E] | 4.87
65 | LARRRRRRQARREAEAMKPRRLGR [D17M] | 4.49
66 | LARRRRRRQARREAEAYKPRRLGR [D17Y] | 4.88
67 | LARRRRRRQARREAEALKPRRLGR [D17L] | 4.52
68 | LARRRRRRQARREAEAFKPRRLGR [D17F] | 4.73
69 | LARRRRRRQARREAEAWKPRRLGR [D17W] | 4.33
70 | LARRRRRRQARREAEAIKPRRLGR [D17I] | 3.98
71 | LARRRRRRQARREAEAPKPRRLGR [D17P] | 4.33
72 | LWRRRRRRQARREAEADKPRRLGR [A2W] | 3.61

Row | Variant | protein stability index
73 | LTRRRRRRQARREAEADKPRRLGR [A2T] | 4.28
74 | LYRRRRRRQARREAEADKPRRLGR [A2Y] | 4.32
75 | LQRRRRRRQARREAEADKPRRLGR [A2Q] | 5.01
76 | LLRRRRRRQARREAEADKPRRLGR [A2L] | 3.84
77 | LMRRRRRRQARREAEADKPRRLGR [A2M] | 4.19
78 | LPRRRRRRQARREAEADKPRRLGR [A2P] | 4.84
79 | LIRRRRRRQARREAEADKPRRLGR [A2I] | 4.62
80 | LARRRRRRQARREAEADKPRRLGM [R24M] | 4.28
81 | LARRRRRRQARREAEADKPRRLGK [R24K] | 4.67
82 | LARRRRRRQARREAEADKPRRLGP [R24P] | 4.67
83 | LARRRRRRQARREAEADKPRRLGC [R24C] | 4.44
84 | LARRRRRRQARREAEADKPRRLGD [R24D] | 5.02
85 | LARRRRRRQARREAEADKPRRLGV [R24V] | 4.42
86 | LARRRRRRQARREAEADKPRRLGS [R24S] | 4.85
87 | LARRRRRRQARREAEADKPRRLGW [R24W] | 3.84
88 | LARRRRRRQARRRAEADKPRRLGR [E13R] | 4.4
89 | LARRRRRRQARRKAEADKPRRLGR [E13K] | 4.37
90 | LARRRRRRQARRYAEADKPRRLGR [E13Y] | 4.4
91 | LARRRRRRQARRCAEADKPRRLGR [E13C] | 5.01
92 | LARRRRRRQARRSAEADKPRRLGR [E13S] | 4.26
93 | LARRRRRRQARRNAEADKPRRLGR [E13N] | 4.59
94 | LARRRRRRQARRQAEADKPRRLGR [E13Q] | 4.88
